Measured values published in patent US20250043302A1, “MUTATED HYDROXYPHENYLPYRUVATE DIOXYGENASE POLYPEPTIDE, AND CODING GENE AND USE THEREOF” (BEIJING DABEINONG BIOTECHNOLOGY CO., LTD., priority 2021, published 2025).
Residue numbers refer to the chain shown, from its start. In names and notes the source's numbering stands.

B1: AsHPPDm-F372G-02: nucleotide sequence encoding Avena sativa HPPD with F372G; vector DBN11774 (nucleic acid)
DNA: ATGCCACCTACTCCAGCTACAGCTACTGGTGCTGCTGCTGCTGCCGTTACTCCTGAGCACGCTGCCAGGTCATTCCCCAGGGTGGTTCGCGTGAACCCCAGATCTGATAGGTTCCCAGTTCTGAGCTTCCACCATGTTGAGCTGTGGTGCGCTGATGCTGCTTCTGCTGCTGGCAGGTTCTCTTTCGCTCTTGGTGCTCCACTCGCTGCTAGATCTGATCTGTCTACAGGAAATAGCGCTCATGCCTCACTCCTGCTTCGCTCAGGTGCTTTGGCCTTCCTCTTCACCGCTCCATATGCTCCCCCACCTCAGGAGGCTGCTACTGCTGCTGCTACAGCCTCCATTCCAAGCTTCTCAGCTGATGCCGCTAGAACCTTCGCTGCTGCTCATGGACTTGCCGTGAGGTCTGTTGGTGTTCGCGTGGCTGATGCTGCTGAGGCTTTCAGAGTTTCCGTTGCCGGCGGAGCTAGGCCAGCTTTCGCTCCTGCTGATTTGGGACATGGTTTCGGCCTGGCTGAGGTTGAGCTTTACGGTGACGTGGTTCTCCGCTTCGTGTCTTACCCAGATGAGACTGACCTGCCTTTCCTTCCCGGCTTCGAGAGAGTTTCCTCTCCTGGTGCCGTGGATTACGGCCTGACAAGGTTCGACCACGTGGTTGGAAACGTTCCCGAGATGGCTCCAGTGATCGATTACATGAAGGGCTTCCTTGGATTCCATGAGTTCGCCGAGTTCACTGCTGAGGACGTGGGAACCACTGAGTCCGGTTTGAACTCTGTGGTTCTCGCCAACAATTCTGAGGCTGTTTTGCTCCCTCTGAATGAGCCTGTGCATGGAACCAAGAGGAGAAGCCAGATTCAAACTTACCTGGAGTACCACGGTGGCCCTGGAGTTCAGCATATCGCCCTTGCTTCTAATGATGTGTTGCGCACACTCAGAGAGATGCGCGCCAGAACCCCCATGGGAGGTTTCGAGTTCATGGCCCCACCACAGGCTAAGTACTACGAGGGCGTTAGAAGGATTGCTGGAGACGTGTTGAGCGAGGAGCAGATCAAGGAGTGCCAAGAGCTGGGTGTTCTTGTGGATAGGGATGACCAGGGCGTTCTGCTTCAAATTGGTACTAAGCCAGTGGGCGACCGCCCTACATTCTTCCTTGAGATGATTCAAAGAATCGGCTGCATGGAGAAGGATGAGGTTGGACAGGAGTACCAAAAGGGCGGATGCGGTGGCTTCGGAAAGGGTAACTTCAGCGAGTTGTTCAAGTCAATCGAGGACTACGAGAAGAGCCTCGAGGTGAAGCAGTCAGTGGTTGCCCAAAAGTCCTGA
modifications: AsHPPDm-F372G-02 Nucleotide Sequence
notes: vector DBN11774
B2: AsHPPDm-F372G-F383W-02: nucleotide sequence encoding Avena sativa HPPD with F372G+F383W; vector DBN11775 (nucleic acid)
DNA: B1 DNA with T1148G, C1149G
modifications: AsHPPDm-F372G-F383W-02 Nucleotide Sequence
notes: vector DBN11775
B3: AsHPPDm-F372V-02: nucleotide sequence encoding Avena sativa HPPD with F372V; vector DBN11776 (nucleic acid)
DNA: B1 DNA with G1115T, T1116C
modifications: AsHPPDm-F372V-02 Nucleotide Sequence
notes: vector DBN11776

test system: Arabidopsis thaliana T1 plants; experiment: Topramezone tolerance of transgenic Arabidopsis thaliana T1 plants (spray, bleached leaf area grade, damage score); format: in vivo; conditions: topramezone 100 g ai/ha (4x field concentration); Arabidopsis thaliana T1 plants
Summary of the method: (§1)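 T1 transformants selected by glufosinate; 18-day-old plants, with empty-vector and wild-type controls, sprayed with topramezone (25–200 g ai/ha), isoxaflutole (35–280 g ai/ha) or mesotrione (52.5–420 g ai/ha), water as 0×. Bleached leaf area fraction scored at 7 DAT as grades 0–3.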

| Molecule | Resistance evaluation | Scores |
| --- | --- | --- |
| B1 | Highly resistant | 0 |
| B2 | Highly resistant | 0 |
| B3 | Highly resistant | 0 |

same assay, conditions: topramezone 100 g ai/ha (4x field concentration); Arabidopsis thaliana T1 plants; 16 plants

| Molecule | Grade 0 (classification and statistics of the grade of pesticide damage; number of plants) | Grade 1 (classification and statistics of the grade of pesticide damage; number of plants) | Grade 2 (classification and statistics of the grade of pesticide damage; number of plants) | Grade 3 (classification and statistics of the grade of pesticide damage; number of plants) |
| --- | --- | --- | --- | --- |
| B1 | 16 | 0 | 0 | 0 |
| B2 | 16 | 0 | 0 | 0 |
| B3 | 16 | 0 | 0 | 0 |

same assay, conditions: topramezone 200 g ai/ha (8x field concentration); Arabidopsis thaliana T1 plants

| Molecule | Resistance evaluation | Scores |
| --- | --- | --- |
| B1 | Highly resistant | 0 |
| B2 | Highly resistant | 0 |
| B3 | Highly resistant | 0 |

same assay, conditions: topramezone 200 g ai/ha (8x field concentration); Arabidopsis thaliana T1 plants; 16 plants

| Molecule | Grade 0 (classification and statistics of the grade of pesticide damage; number of plants) | Grade 1 (classification and statistics of the grade of pesticide damage; number of plants) | Grade 2 (classification and statistics of the grade of pesticide damage; number of plants) | Grade 3 (classification and statistics of the grade of pesticide damage; number of plants) |
| --- | --- | --- | --- | --- |
| B1 | 16 | 0 | 0 | 0 |
| B2 | 16 | 0 | 0 | 0 |
| B3 | 16 | 0 | 0 | 0 |

same assay, conditions: topramezone at four-fold or eight-fold field concentration

| Molecule | tolerance to topramezone (resistance class) |
| --- | --- |
| B1 | highly-resistant |
| B2 | highly-resistant |
| B3 | highly-resistant |

test system: Arabidopsis thaliana T1 plants; experiment: Mesotrione tolerance of transgenic Arabidopsis thaliana T1 plants (spray, bleached leaf area grade, damage score); format: in vivo; parameters: Scores: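 damage score 0-100 computed as Σ(N×S)/(T×M)×100 over grades 0-3 with higher meaning more damage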; conditions: Table 9; mesotrione 210 g ai/ha (2×)
Summary of the method: as §1

| Molecule | Resistance evaluation |
| --- | --- |
| B1 | Moderately |
| B2 | Highly resistant |
| B3 | Moderately |

same assay, conditions: Table 9; mesotrione 210 g ai/ha (2×); number of plants at grade 0

| Molecule | Classification and statistics of the grade of pesticide damage Grade 0 |
| --- | --- |
| B1 | 5 |
| B2 | 16 |
| B3 | 5 |

same assay, conditions: Table 9; mesotrione 210 g ai/ha (2×); number of plants at grade 1

| Molecule | Classification and statistics of the grade of pesticide damage Grade 1 |
| --- | --- |
| B1 | 8 |
| B2 | 0 |
| B3 | 7 |

same assay, conditions: Table 9; mesotrione 210 g ai/ha (2×); number of plants at grade 2

| Molecule | Classification and statistics of the grade of pesticide damage Grade 2 |
| --- | --- |
| B1 | 2 |
| B2 | 0 |
| B3 | 4 |

same assay, conditions: Table 9; mesotrione 210 g ai/ha (2×); number of plants at grade 3

| Molecule | Classification and statistics of the grade of pesticide damage Grade 3 |
| --- | --- |
| B1 | 1 |
| B2 | 0 |
| B3 | 0 |

same assay, conditions: Table 9; mesotrione 210 g ai/ha (2×); pesticide damage score

| Molecule | Scores |
| --- | --- |
| B1 | 31 |
| B2 | 0 |
| B3 | 31 |

same assay, conditions: Table 9; mesotrione 420 g ai/ha (4×)

| Molecule | Resistance evaluation |
| --- | --- |
| B1 | Poorly resistant |
| B2 | Highly resistant |
| B3 | Poorly resistant |

same assay, conditions: Table 9; mesotrione 420 g ai/ha (4×); number of plants at grade 0

| Molecule | Classification and statistics of the grade of pesticide damage Grade 0 |
| --- | --- |
| B1 | 0 |
| B2 | 13 |
| B3 | 0 |

same assay, conditions: Table 9; mesotrione 420 g ai/ha (4×); number of plants at grade 1

| Molecule | Classification and statistics of the grade of pesticide damage Grade 1 |
| --- | --- |
| B1 | 8 |
| B2 | 3 |
| B3 | 8 |

same assay, conditions: Table 9; mesotrione 420 g ai/ha (4×); number of plants at grade 2

| Molecule | Classification and statistics of the grade of pesticide damage Grade 2 |
| --- | --- |
| B1 | 8 |
| B2 | 0 |
| B3 | 7 |

same assay, conditions: Table 9; mesotrione 420 g ai/ha (4×); number of plants at grade 3

| Molecule | Classification and statistics of the grade of pesticide damage Grade 3 |
| --- | --- |
| B1 | 0 |
| B2 | 0 |
| B3 | 1 |

same assay, conditions: Table 9; mesotrione 420 g ai/ha (4×); pesticide damage score

| Molecule | Scores |
| --- | --- |
| B1 | 50 |
| B2 | 6 |
| B3 | 52 |

test system: Arabidopsis thaliana T1 plants; experiment: Isoxaflutole tolerance of transgenic Arabidopsis thaliana T1 plants (spray, bleached leaf area grade, damage score); format: in vivo; conditions: isoxaflutole 140 g ai/ha (2x field concentration); Arabidopsis thaliana T1 plants;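 on Scores: Weighted damage index from 0 to 100 where higher means more damage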
Summary of the method: as §1

| Molecule | Resistance evaluation | Scores |
| --- | --- | --- |
| B1 | Moderately | 29 |
| B2 | Highly resistant | 0 |
| B3 | Moderately | 33 |

same assay, conditions: isoxaflutole 140 g ai/ha (2x field concentration); Arabidopsis thaliana T1 plants; 16 plants

| Molecule | Grade 0 (classification and statistics of the grade of pesticide damage; number of plants) | Grade 1 (classification and statistics of the grade of pesticide damage; number of plants) | Grade 2 (classification and statistics of the grade of pesticide damage; number of plants) | Grade 3 (classification and statistics of the grade of pesticide damage; number of plants) |
| --- | --- | --- | --- | --- |
| B1 | 6 | 7 | 2 | 1 |
| B2 | 16 | 0 | 0 | 0 |
| B3 | 6 | 5 | 4 | 1 |

same assay, conditions: isoxaflutole 280 g ai/ha (4x field concentration); Arabidopsis thaliana T1 plants

| Molecule | Resistance evaluation | Scores |
| --- | --- | --- |
| B1 | Poorly resistant | 67 |
| B2 | Highly resistant | 8 |
| B3 | Poorly resistant | 67 |

same assay, conditions: isoxaflutole 280 g ai/ha (4x field concentration); Arabidopsis thaliana T1 plants; 16 plants

| Molecule | Grade 0 (classification and statistics of the grade of pesticide damage; number of plants) | Grade 1 (classification and statistics of the grade of pesticide damage; number of plants) | Grade 2 (classification and statistics of the grade of pesticide damage; number of plants) | Grade 3 (classification and statistics of the grade of pesticide damage; number of plants) |
| --- | --- | --- | --- | --- |
| B1 | 0 | 0 | 16 | 0 |
| B2 | 12 | 4 | 0 | 0 |
| B3 | 0 | 0 | 16 | 0 |
